{
  "source": "paper PMC10723421",
  "binders": {"B1": {"name": "GA del H3/H4p probe, biotin (198 bp) (dsDNA)", "DNA 1": "CACAGCACGAAAGTCACTAAAGAACTAATTTCAACGTTTCTGTGTGCCCCTATTTATAGGTAAAACGACAAAAACCCTACGAACGATATGTTCGTTCGCTTTTCGCTCGTCAAATGAAATGGCCTCTGTTTTTTCACCGTCCACGATTGCTATATAAGTAGGTAGCAAATGCTCTGATCGTTTATTGTGTTTTCAAAC", "DNA 2": "GTTTGAAAACACAATAAACGATCAGAGCATTTGCTACCTACTTATATAGCAATCGTGGACGGTGAAAAAACAGAGGCCATTTCATTTGACGAGCGAAAAGCGAACGAACATATCGTTCGTAGGGTTTTTGTCGTTTTACCTATAAATAGGGGCACACAGAAACGTTGAAATTAGTTCTTTAGTGACTTTCGTGCTGTG"}},
  "biological_target": "T1, CLAMP (recombinant full-length) (UniProt Q9V9N4 1-561)",
  "T1 sequence": "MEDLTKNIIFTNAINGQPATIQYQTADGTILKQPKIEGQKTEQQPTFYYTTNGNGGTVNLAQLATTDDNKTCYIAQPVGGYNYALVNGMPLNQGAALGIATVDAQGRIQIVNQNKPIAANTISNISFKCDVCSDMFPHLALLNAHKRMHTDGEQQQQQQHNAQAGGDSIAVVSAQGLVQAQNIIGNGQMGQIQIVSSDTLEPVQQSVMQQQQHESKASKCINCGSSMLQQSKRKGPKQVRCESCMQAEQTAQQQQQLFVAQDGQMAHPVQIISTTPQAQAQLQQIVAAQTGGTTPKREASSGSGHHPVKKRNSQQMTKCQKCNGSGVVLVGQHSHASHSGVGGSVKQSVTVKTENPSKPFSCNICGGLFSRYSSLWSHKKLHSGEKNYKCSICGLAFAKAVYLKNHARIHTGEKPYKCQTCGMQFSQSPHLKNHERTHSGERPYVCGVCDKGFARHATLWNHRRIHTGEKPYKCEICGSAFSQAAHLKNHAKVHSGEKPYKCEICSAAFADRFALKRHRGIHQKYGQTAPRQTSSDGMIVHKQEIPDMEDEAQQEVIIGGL",
  "test": "EMSA",
  "data": [
    {"binder": "B1", "values": [
      {"measurement": "binding result", "result": "no binding"}
    ]}
  ]
}
